Reference: patent US20230303689A1 (published 2023)

Molecular target: human PD-1 expressed on cells (HuT78/PD-1, NK92MI/PD-1) (human, UniProt Q15116 25-288)
Assay: FACS binding (MFI)

Chain of human PD-1 expressed on cells (HuT78/PD-1, NK92MI/PD-1) (Q15116 25-288): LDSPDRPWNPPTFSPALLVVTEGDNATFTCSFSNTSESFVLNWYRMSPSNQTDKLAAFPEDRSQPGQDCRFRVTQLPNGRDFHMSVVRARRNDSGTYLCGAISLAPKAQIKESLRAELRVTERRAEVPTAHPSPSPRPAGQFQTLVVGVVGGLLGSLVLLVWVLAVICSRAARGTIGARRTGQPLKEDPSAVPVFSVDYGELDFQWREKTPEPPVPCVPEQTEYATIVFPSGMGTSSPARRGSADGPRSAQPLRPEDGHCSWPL

B1: murine mAb 317 (antibody, V domains shown)
VH: QVQLKESGPGLVAPSKNLSITCTVSGFSLTSYGVHWIRQPPGKGLEWLGVIWAGGSTNYNSALMSRLSISKDNSRSQVFLRMNSLQTDDTAMYYCARAYGNYWYIDVWGAGTTVTVSS
VL: DIVMTQTPKFLLVSAGDRVTITCKASQSVSNDVAWYQQKPGQSPKLLINYAFHRFTGVPDRFTGSGYGTDFIFTISTVQAEDLAVYFCHQAYSSPYTFGGGTKLEMK
Q: Which EC50 does the source give for B1 here?
A: Its EC50 is 0.105 mg/L.
